One series addresses T1, androgen receptors (ARs) (Homo sapiens, UniProt P10275).
T1 construct: plus VP16 fused to the indicated full length receptors; expressed in transfected cells; host or cells: CV-1
T1 sequence (P10275 1-920): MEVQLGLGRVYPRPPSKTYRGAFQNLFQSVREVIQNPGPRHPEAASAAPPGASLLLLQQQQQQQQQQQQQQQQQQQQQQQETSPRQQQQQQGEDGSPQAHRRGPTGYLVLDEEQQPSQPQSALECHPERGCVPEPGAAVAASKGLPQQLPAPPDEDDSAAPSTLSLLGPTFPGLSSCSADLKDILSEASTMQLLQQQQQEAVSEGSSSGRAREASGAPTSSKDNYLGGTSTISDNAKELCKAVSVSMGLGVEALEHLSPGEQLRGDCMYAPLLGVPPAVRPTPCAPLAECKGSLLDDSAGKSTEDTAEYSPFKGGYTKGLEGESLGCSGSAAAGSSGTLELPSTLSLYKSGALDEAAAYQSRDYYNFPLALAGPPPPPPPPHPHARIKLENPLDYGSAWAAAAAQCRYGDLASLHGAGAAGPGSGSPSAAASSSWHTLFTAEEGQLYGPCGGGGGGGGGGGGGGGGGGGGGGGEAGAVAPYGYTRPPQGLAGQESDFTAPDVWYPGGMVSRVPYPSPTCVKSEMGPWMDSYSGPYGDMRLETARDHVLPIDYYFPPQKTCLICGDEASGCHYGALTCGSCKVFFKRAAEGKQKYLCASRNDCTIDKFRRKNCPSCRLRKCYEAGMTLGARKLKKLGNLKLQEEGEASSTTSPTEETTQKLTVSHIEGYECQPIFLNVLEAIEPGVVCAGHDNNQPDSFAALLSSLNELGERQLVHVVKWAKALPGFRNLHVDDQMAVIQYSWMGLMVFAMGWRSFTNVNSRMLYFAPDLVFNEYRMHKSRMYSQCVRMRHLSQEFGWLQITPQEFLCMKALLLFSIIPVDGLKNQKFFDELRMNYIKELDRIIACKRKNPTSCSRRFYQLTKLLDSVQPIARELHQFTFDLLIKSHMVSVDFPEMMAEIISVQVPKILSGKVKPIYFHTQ
T1 sequence (Q6EMB2 838-1281 F1267S partner limits assumed): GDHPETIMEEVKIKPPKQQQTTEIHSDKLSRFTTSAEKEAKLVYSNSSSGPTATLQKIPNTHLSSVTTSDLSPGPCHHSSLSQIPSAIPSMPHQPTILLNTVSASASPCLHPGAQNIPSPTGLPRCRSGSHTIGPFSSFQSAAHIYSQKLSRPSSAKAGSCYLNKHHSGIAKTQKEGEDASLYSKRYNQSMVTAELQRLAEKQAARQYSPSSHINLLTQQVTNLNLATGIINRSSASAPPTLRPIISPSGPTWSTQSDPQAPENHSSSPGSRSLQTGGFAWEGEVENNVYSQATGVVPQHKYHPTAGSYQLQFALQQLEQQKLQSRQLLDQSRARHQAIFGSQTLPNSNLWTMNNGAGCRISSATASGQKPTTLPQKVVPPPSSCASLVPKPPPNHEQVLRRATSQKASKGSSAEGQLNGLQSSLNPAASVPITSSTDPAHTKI
The series is described as follows: Mammalian two-hybrid assay with VP16 full length receptor: AR. The series is classed as cell-based. The conditions noted are these: 1 nM R1881. The method, then: (§1) FIG. 6C1-3 illustrate the association of STAMP with assorted steroid/nuclear receptors, including glucocorticoid receptors (GRs), progesterone receptors (PRs), androgen receptors (ARs), estrogen receptors (ER α or β), PPARγ2 receptors, thyroid receptor beta (TR), and retinoid (α) receptors (RAR α or RXR α). Triplicate samples of CV-1 cells were transfected (as described for FIG. 6B) with GAL, or GAL fused to TIF2.4 or STAMP834C, plus VP16 fused to the indicated full length receptors and incubated with the appropriate steroid (1 μM Dex, 20 nM R5020, 1 nM R1881, 0.1 μM triiodothyronine, or 1 μM estradiol, roziglitazone, or 9-cis-retinoic acid). The average relative luciferase activities of 2-3 experiments±S.E.M. were then plotted. FIG. 6C1 illustrates the effects of STAMP association upon GR, PR and AR induced expression. FIG. 6C2 illustrates the effects of STAMP association upon ERα, ERβ and PPARγ2 induced expression. FIG. 6C3 illustrates the effects of STAMP association upon TR, RARα and RXRα induced expression.
(§2) These assays were conducted as described (He et al., 2002). […]

In the next series the target is T2, ERβ (Homo sapiens, UniProt Q92731).
T2 construct: plus VP16 fused to the indicated full length receptors; expressed in transfected cells; host or cells: CV-1
T2 sequence (Q92731 whole entry, species assumed, the tested form may be a part): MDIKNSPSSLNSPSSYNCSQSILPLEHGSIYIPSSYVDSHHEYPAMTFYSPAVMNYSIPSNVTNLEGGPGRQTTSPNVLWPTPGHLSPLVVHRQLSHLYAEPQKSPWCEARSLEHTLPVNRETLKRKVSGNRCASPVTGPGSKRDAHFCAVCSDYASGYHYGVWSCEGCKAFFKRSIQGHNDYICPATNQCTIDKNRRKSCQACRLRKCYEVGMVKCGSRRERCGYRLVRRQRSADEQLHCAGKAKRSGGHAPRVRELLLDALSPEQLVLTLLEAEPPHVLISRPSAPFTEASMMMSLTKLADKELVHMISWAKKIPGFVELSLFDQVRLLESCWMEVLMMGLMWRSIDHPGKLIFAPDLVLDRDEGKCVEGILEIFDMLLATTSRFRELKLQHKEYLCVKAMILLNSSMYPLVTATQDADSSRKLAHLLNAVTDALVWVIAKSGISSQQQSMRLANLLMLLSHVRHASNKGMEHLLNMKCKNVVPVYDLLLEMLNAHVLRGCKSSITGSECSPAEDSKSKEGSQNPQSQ
The series is described as follows: Mammalian two-hybrid assay with VP16 full length receptor: ERβ. The series is classed as cell-based. The note with it: 1 μM estradiol. Here is the method: as §1, §2

The target in series [1] is T3, glucocorticoid receptor (GR) (Rattus norvegicus, UniProt P06536).
T3 sequence (P06536 1-795): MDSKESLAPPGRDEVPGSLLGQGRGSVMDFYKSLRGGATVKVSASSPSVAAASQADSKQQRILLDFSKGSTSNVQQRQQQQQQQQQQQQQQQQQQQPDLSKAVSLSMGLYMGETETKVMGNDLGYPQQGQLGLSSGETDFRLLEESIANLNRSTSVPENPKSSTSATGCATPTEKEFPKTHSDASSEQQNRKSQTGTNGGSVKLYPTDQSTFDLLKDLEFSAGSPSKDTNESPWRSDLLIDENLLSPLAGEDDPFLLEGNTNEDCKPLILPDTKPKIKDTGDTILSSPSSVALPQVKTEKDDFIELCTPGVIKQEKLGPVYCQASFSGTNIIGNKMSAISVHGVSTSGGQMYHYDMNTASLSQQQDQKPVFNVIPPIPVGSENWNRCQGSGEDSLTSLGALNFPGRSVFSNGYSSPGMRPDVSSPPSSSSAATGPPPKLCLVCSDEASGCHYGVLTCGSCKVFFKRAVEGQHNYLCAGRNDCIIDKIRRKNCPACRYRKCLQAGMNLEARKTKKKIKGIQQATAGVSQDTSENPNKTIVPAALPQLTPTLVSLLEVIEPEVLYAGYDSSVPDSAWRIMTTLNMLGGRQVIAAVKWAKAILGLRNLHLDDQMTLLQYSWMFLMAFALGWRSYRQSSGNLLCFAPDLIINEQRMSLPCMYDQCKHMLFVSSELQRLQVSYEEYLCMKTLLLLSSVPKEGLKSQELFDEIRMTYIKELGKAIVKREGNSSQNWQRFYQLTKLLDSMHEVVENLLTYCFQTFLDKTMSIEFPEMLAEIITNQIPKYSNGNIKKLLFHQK
The series is described as follows: GR-mediated induction of GREtkLUC reporter, transient transfection of CV-1 cells.
Experimental: Triplicate samples of CV-1 cells were transiently transfected with GR (6 ng)±TIF2 (20 ng)±STAMP (160 ng) plasmids, GREtkLUC reporter, and Renilla control plasmid. […] FIG. 4B illustrates the fold changes in GR induction parameters by STAMP and TIF2. […] The fold-increase in each parameter was determined as follows: for EC50s, fold increase=[EC50]GR/[EC50]GR+factor; for partial agonist activity and fold Dex induction, fold increase=activityGR+factor/activityGR). The average fold increases were then plotted±S.E.M (n=4).
CV-1 cells were transiently transfected with GR (6 ng)±TIF2 (20 ng)±STAMP (160 ng) plasmids, GREtkLUC reporter, and Renilla control plasmid, and induced with ethanol± the indicated concentrations of Dex.
Tests were run to determine whether exogenous STAMP can modulate the EC50 of glucocorticoids and the partial agonist activity of antiglucocorticoids in the transient transfection assays where GR induced gene expression from a GREtkLUC reporter.

B1: STAMP834C: STAMP fragment amino acids 834-1277, receptor interaction domain (RID) (protein)
chain: T1 sequence (Q6EMB2 838-1281 F1267S partner limits assumed)
On to B1, for which the “interaction with agonist-bound, full length AR” value with androgen receptors (ARs) is “interacted”. In addition, the “interaction with estrogen receptor β” value with ERβ was “lack of interaction”.

B2: STAMP: SRC-1 and TIF2 Associated Modulatory Protein, 1277 amino acid human polypeptide, expressed from transfected plasmid (protein)
chain: MARDLEETASSSEDEEVISQEDHPCIMWTGGCRRIPVLVFHADAILTKDNNIRVIGERYHLSYKIVRTDSRLVRSILTAHGFHEVHPSSTDYNLMWTGSHLKPFLLRTLSEAQKVNHFPRSYELTRKDRLYKNIIRMQHTHGFKVFHILPQTFLLPAEYAEFCNSYSKDRGPWIVKPVASSRGRGVYLINNPNQISLEENILVSRYINNPLLIDDFKFDVRLYVLVTSYDPLVIYLYEEGLARFATVRYDQGAKNIRNQFMHLTNYSVNKKSGDYVSCDDPEVEDYGNKWSMSAMLRYLKQEGRDTTALMAHVEDLIIKTIISAELAIATACKTFVPHRSSCFELYGFDVLIDSTLKPWLLEVNLSPSLACDAPLDLKIKASMISDMFTVVGFVCQDPAQRASTRPIYPTFESSRRNPFQKPQRCRPLSASDAEMKNLVGSAREKGPGKLGGSVLGLSMEEIKVLRRVKEENDRRGGFIRIFPTSETWEIYGSYLEHKTSMNYMLATRLFQDRMTADGAPELKIESLNSKAKLHAALYERKLLSLEVRKRRRRSSRLRAMRPKYPVITQPAEMNVKTETESEEEEEVALDNEDEEQEASQEESAGFLRENQAKYTPSLTALVENTPKENSMKVREWNNKGGHCCKLETQELEPKFNLMQILQDNGNLSKMQARIAFSAYLQHVQIRLMKDSGGQTFSASWAAKEDEQMELVVRFLKRASNNLQHSLRMVLPSRRLALLERRRILAHQLGDFIIVYNKETEQMAEKKSKKKVEEEEEDGVNMENFQEFIRQASEAELEEVLTFYTQKNKSASVFLGTHSKISKNNNNYSDSGAKGDHPETIMEEVKIKPPKQQQTTEIHSDKLSRFTTSAEKEAKLVYSNSSSGPTATLQKIPNTHLSSVTTSDLSPGPCHHSSLSQIPSAIPSMPHQPTILLNTVSASASPCLHPGAQNIPSPTGLPRCRSGSHTIGPFSSFQSAAHIYSQKLSRPSSAKAGSCYLNKHHSGIAKTQKEGEDASLYSKRYNQSMVTAELQRLAEKQAARQYSPSSHINLLTQQVTNLNLATGIINRSSASAPPTLRPIISPSGPTWSTQSDPQAPENHSSSPGSRSLQTGGFAWEGEVENNVYSQATGVVPQHKYHPTAGSYQLQFALQQLEQQKLQSRQLLDQSRARHQAIFGSQTLPNSNLWTMNNGAGCRISSATASGQKPTTLPQKVVPPPSSCASLVPKPPPNHEQVLRRATSQKASKGSSAEGQLNGLQSSLNPAASVPITSSTDPAHTKI
In the case of B2, in series [1] (STAMP alone, no exogenous coactivators, low GR, 1 μM Dex-Mes, S.E.M., n=6, P=0.023), the “increase in the partial agonist activity of the antagonist Dex-Mes” value is listed as 1.16±0.05 fold. In addition, the “shift in the dose-response curve to lower steroid concentrations” value in series [1] (STAMP alone, no exogenous coactivators, low GR, Dex, S.E.M., n=6, P=0.0074) turned out to be 1.54±0.12 fold. In series [1] (STAMP alone, S.E.M., n=6), the “fold induction by 1 μM Dex, fold increase” value is reported as 0.93±0.08 fold and the “total amount of gene product induced by 1 μM Dex, fold increase” value worked out at 1.26±0.05 fold. Also, in series [1] (both with and without added TIF2 (FIG. 4B)), the “fold induction (above basal activity) with 1 μM Dex” value is listed as “increases the fold induction”.

For the origin of these results see US7867500B2, “Cofactor that modulates steroid receptor activities” (The United States of America as represented by the …, priority 2004, dated 2011).
